Publication PMC2581427
Where a chain is given by its changes, count along the chain named.

B1: Lmo1 probe (dsDNA)
DNA 1: GTAATGAATTGATTTAATTAACAGGGGAGTCTGA
DNA 2: GTCAGACTCCCCTGTTAATTAAATCAATTCATTA
B2: Lmo1mut1 (dsDNA)
DNA 1: B1 DNA 1 with A16C, A17C
DNA 2: B1 DNA 2 with T19G, T20G
B3: Lmo1mut2 (dsDNA)
DNA 1: B1 DNA 1 with T9C, T10C
DNA 2: B1 DNA 2 with A26G, A27G
B4: Shox2 probe (dsDNA)
DNA 1: GCAAAATCCACGCTTAATTAAATTAATTAGGGA
DNA 2: GTCCCTAATTAATTTAATTAAGCGTGGATTTTG
B5: Ebf3 probe (dsDNA)
DNA 1: GCGATTTTCCCGATTAATTAAAATATTAACGCA
DNA 2: GTGCGTTAATATTTTAATTAATCGGGAAAATCG

Columns and labels:
GST-Arx (286-430) [1] = target: T1, GST-Arx (286-430) (UniProt O35085 286-430); test: EMSA
T1 sequence (O35085 286-430): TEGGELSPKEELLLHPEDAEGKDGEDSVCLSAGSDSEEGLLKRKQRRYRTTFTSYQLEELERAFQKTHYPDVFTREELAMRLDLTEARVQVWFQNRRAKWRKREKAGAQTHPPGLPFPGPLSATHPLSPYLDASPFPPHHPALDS

GST-Arx (286-430) [2] = target: T1, GST-Arx (286-430); test: competition
GST-Arx (286-430) [3] = target: T1, GST-Arx (286-430); test: EMSA; remark: listed apart in the source

Row | Binder | binding result (GST-Arx (286-430) [1]) | binding result (GST-Arx (286-430) [2]) | other results
1 | B1 | binds | – | –
2 | B2 | – | no binding | –
3 | B3 | – | binds | –
4 | B4 | binds | – | –
5 | B5 | – | – | binding result (GST-Arx (286-430) [3]): binds
